Source: publication PMC3744072, “Analysis of the cartilage proteome from three different mouse models of genetic skeletal diseases reveals common and discrete disease signatures” (Biology Open, 2013)
Values joined by “and” are separate entries in the source; they are usually repeats but may differ in a detail not shown here. Equal values may be shown once.

B1: matrilin-4 (mouse) (natural protein, mouse (endogenous in mouse cartilage), UniProt O89029 22-624, looked up)
chain: QLQSAGPRCYNGPLDLVFMIDSSRSVRPFEFETMRQFLVGLLRSLDVGLNATRVGVIQYSSQVQSVFPLGAFSRREDMERAIRAVVPLAQGTMTGLAIQYAMNVAFSEAEGARPSEERVPRVLVIVTDGRPQDRVAEVAAQARARGIEIYAVGVQRADVGSLRTMASPPLDQHVFLVESFDLIQEFGLQFQGRLCGKDLCAELVHGCQHLCVNAPGTFYCACNSGYKLAPDNKNCLALDLCAEGTHGCEHLCVNSVDSYFCRCRAGFALQQDQRSCRAIDYCSFGNHSCQHECVSTLAGPQCRCREGHDLLPDGRSCRVRDFCNGVDHGCEFQCVSEGLSFHCLCPEGRRLQADGKSCDRCREGHVDLVLLVDGSKSVRPQNFELVKRFVNQIVDFLDVSPEGTRVGLVQFSSRVRTEFPLGRYGTAAEVKQAVLAVEYMERGTMTGLALRHMVEHSFSEAQGARPRDLNVPRVGLVFTDGRSQDDISVWAARAKEEGIVMYAVGVGKAVEEELREIASEPSELHVSYSPDFSTMTHLLENLKGSICPEEGIGAGTELRSPCECESLVEFQGRTLGALESLTQNLARLTERLEELENQLASRK
notes: matrilin-4, mouse, endogenous in cartilage
B2: cartilage oligomeric matrix protein (COMP), wild type, mouse (natural protein)
chain: not shown
notes: cartilage oligomeric matrix protein, mouse, endogenous in chondrocytes; The text calls the retained form consistent with a tetramer; also called wild type COMP; source: endogenous, lysate of isolated costal chondrocytes of Matn3 V194D mice

Assays:
[1] = biological target: the molecule itself; assay: non-reducing SDS-PAGE and Western blot; sequential extracts (buffer 1: 0.15 M NaCl; buffer 2: 1 M NaCl, 10 mM EDTA; buffer 3: 4 M GuHCl, 10 mM EDTA) of knee cartilage of 3-week-old mice, non-reducing 4-13.5% gels; oligomers assigned by apparent size
[2] = biological target: the molecule itself; assay: non-reducing SDS-PAGE and Western blot; total protein lysates of isolated chondrocytes of 5-day-old mice, 4-12% gels, non-reduced against reduced (0.1 M DTT); oligomers assigned by apparent size

| Protein | stoichiometry N [1] | stoichiometry N [2] |
| --- | --- | --- |
| B1 | 2 and 3 | – |
| B2 | – | 4 |
